Assay results taken from patent publication US20110263454A1, “Methods of Identifying Functional Characteristics of Promoters, Transcription Modifying Proteins and Transcription Modulating Agents” (Salk Institute for Biological Studies, priority 2008, published 2011).

B1: RVRa: Rev-Erb α (NR1D1), cDNA driver (protein, UniProt P20393 1-614, looked up)
Nuclear receptor subfamily 1 …: MTTLDSNNNTGGVITYIGSSGSSPSRTSPESLYSDNSNGSFQSLTQGCPTYFPPSPTGSLTQDPARSFGSIPPSLSDDGSPSSSSSSSSSSSSFYNGSPPGSLQVAMEDSSRVSPSKSTSNITKLNGMVLLCKVCGDVASGFHYGVHACEGCKGFFRRSIQQNIQYKRCLKNENCSIVRINRNRCQQCRFKKCLSVGMSRDAVRFGRIPKREKQRMLAEMQSAMNLANNQLSSQCPLETSPTQHPTPGPMGPSPPPAPVPSPLVGFSQFPQQLTPPRSPSPEPTVEDVISQVARAHREIFTYAHDKLGSSPGNFNANHASGSPPATTPHRWENQGCPPAPNDNNTLAAQRHNEALNGLRQAPSSYPPTWPPGPAHHSCHQSNSNGHRLCPTHVYAAPEGKAPANSPRQGNSKNVLLACPMNMYPHGRSGRTVQEIWEDFSMSFTPAVREVVEFAKHIPGFRDLSQHDQVTLLKAGTFEVLMVRFASLFNVKDQTVMFLSRTTYSLQELGAMGMGDLLSAMFDFSEKLNSLALTEEELGLFTAVVLVSADRSGMENSASVEQLQETLLRALRALVLKNRPLETSRFTKLLLKLPDLRTLNNMHSEKLLSFRVDAQ
B2: RVRb: Rev-Erb β (NR1D2, alternative name RVR), cDNA driver (protein, UniProt Q14995 1-579, looked up)
Nuclear receptor subfamily 1 …: MEVNAGGVIAYISSSSSASSPASCHSEGSENSFQSSSSSVPSSPNSSNSDTNGNPKNGDLANIEGILKNDRIDCSMKTSKSSAPGMTKSHSGVTKFSGMVLLCKVCGDVASGFHYGVHACEGCKGFFRRSIQQNIQYKKCLKNENCSIMRMNRNRCQQCRFKKCLSVGMSRDAVRFGRIPKREKQRMLIEMQSAMKTMMNSQFSGHLQNDTLVEHHEQTALPAQEQLRPKPQLEQENIKSSSPPSSDFAKEEVIGMVTRAHKDTFMYNQEQQENSAESMQPQRGERIPKNMEQYNLNHDHCGNGLSSHFPCSESQQHLNGQFKGRNIMHYPNGHAICIANGHCMNFSNAYTQRVCDRVPIDGFSQNENKNSYLCNTGGRMHLVCPMSKSPYVDPHKSGHEIWEEFSMSFTPAVKEVVEFAKRIPGFRDLSQHDQVNLLKAGTFEVLMVRFASLFDAKERTVTFLSGKKYSVDDLHSMGAGDLLNSMFEFSEKLNALQLSDEEMSLFTAVVLVSADRSGIENVNSVEALQETLIRALRTLIMKNHPNEASIFTKLLLKLPDLRSLNNMHSEELLAFKVHP
B3: RORa: RAR-related Orphan Receptor α (NR1F1), cDNA driver (protein, UniProt P35398 1-523, looked up)
Nuclear receptor ROR-alpha: MESAPAAPDPAASEPGSSGADAAAGSRETPLNQESARKSEPPAPVRRQSYSSTSRGISVTKKTHTSQIEIIPCKICGDKSSGIHYGVITCEGCKGFFRRSQQSNATYSCPRQKNCLIDRTSRNRCQHCRLQKCLAVGMSRDAVKFGRMSKKQRDSLYAEVQKHRMQQQQRDHQQQPGEAEPLTPTYNISANGLTELHDDLSNYIDGHTPEGSKADSAVSSFYLDIQPSPDQSGLDINGIKPEPICDYTPASGFFPYCSFTNGETSPTVSMAELEHLAQNISKSHLETCQYLREELQQITWQTFLQEEIENYQNKQREVMWQLCAIKITEAIQYVVEFAKRIDGFMELCQNDQIVLLKAGSLEVVFIRMCRAFDSQNNTVYFDGKYASPDVFKSLGCEDFISFVFEFGKSLCSMHLTEDEIALFSAFVLMSADRSWLQEKVKIEKLQQKIQLALQHVLQKNHREDGILTKLICKVSTLRALCGRHTEKLMAFKAIYPDIVRLHFPPLYKELFTSEFEPAMQIDG

Tests used:
[1] = tested on: mUCP1 promoter; assay: NHR-promoter luciferase screen, mUCP1 promoter; assay type: cell-based, mouse; conditions: for Luc. act., normalized to lacZ / Normalized Luc. act., normalized to control: mUCP1 promoter reporter, co-transfected HR, with or without its ligand; for Normalized Luc. act., normalized to control: relative to control; for luciferase activity normalized to lacZ activity and to a control, mUCP!: mUCP! promoter-luciferase, CV-1 cells, NHR +/- ligand, control = 1.00
Method: (§1) The use, feasibility, and reproducibility of the functional NHR-promoter screen in a 48-well format have been tested validated. Briefly, there were co-expressed 50 ng of each NHR/NHR homodimer or NHR/RXR heterodimer with 100 ng promoter/luciferase construct and 50 ng of LacZ (as a control for transfection efficiency) in CV-1 cells using Fugene HD (Roche) as a transfection reagent (alternatively or additionally, a CMV-YFP construct can be used as a transfection control). Each of the nuclear hormone receptors that were used in these experiments was cloned into a pcDNA3.1 vector and comprised a C-terminally linked V5H6 tag. Twenty-four hours after transfection, appropriate ligands were added, where applicable, (see Table 5 for various ligands and concentrations and after 48 hrs, samples were assayed for luciferase and LacZ activity. To measure for luciferase activity 15 ul of sample was added to 30 ul of luciferase buffer (20 mM tricine, 1.07 mM MgCarbonate, 2.67 mM MgSulfate, 0.1 mM Naz-EDTA, 5 mM DTT, 5 mM ATP, 0.15 mg/ml CoA, 0.5 mM Luciferin), mixed briefly, and run in a Perkin Elmer Victor 5 luminometer. Thus, the functional NHR-promoter screen was used to observe the transcriptional activity of 29 promoters from various physiological pathways including inflammation, lipid and sugar metabolism, cholesterol transport, xenobiotic metabolism, and circadian rhythm.
(§2) The promoters that facilitate transcription of the indicated gene products that were tested using the protocols described herein are listed in the first row of the table. The nuclear hormone receptors and, where applicable, ligands that were assayed for their transcriptional effects on the promoters are listed in the first column of the table. The data represent the luciferase activity of each sample normalized to both the lacZ activity of that sample and to a control, e.g., no NHR or ligand, as customary in the art. As described previously, these normalizations allow the transcriptional activity of each reporter cell to be compared to other samples.
(§3) Tables 7-40 show the transcriptional effects of the hormone receptors, and, where applicable, ligands (orphan receptors are screened without ligand), on each individual promoter. […] The control data of each table are shown in their last rows.

[2] = tested on: mUCP2 promoter; assay: NHR-promoter luciferase screen, mUCP2 promoter; assay type: cell-based, mouse; conditions: for Luc. act., normalized to lacZ / Normalized Luc. act., normalized to control: mUCP2 promoter reporter, co-transfected HR, with or without its ligand; for Normalized Luc. act., normalized to control: relative to control; for luciferase activity normalized to lacZ activity and to a control, mUCP2: mUCP2 promoter-luciferase, CV-1 cells, NHR +/- ligand, control = 1.00
Method: as §1, §2, §3

[3] = tested on: hPOMC promoter; assay: NHR-promoter luciferase screen, hPOMC promoter; assay type: cell-based, human; conditions: for Luc. act., normalized to lacZ / Normalized Luc. act., normalized to control: hPOMC promoter, HR/ligand component; for hPOMC promoter reporter activity: transcription factor +/- ligand, control = 1.00
Method: as §1, §2, §3

[4] = tested on: hIRF7 promoter; assay: NHR-promoter luciferase screen, hIRF7 promoter; assay type: cell-based, human; conditions: for Normalized Luc. act., normalized to control / Luc. act., normalized to lacZ: IRF7 promoter reporter; for Normalized Luc. act., normalized to control: HR without or with its ligand, relative to control; for Luc. act., normalized to lacZ: hormone receptor (HR) without or with its ligand; for hIRF7 promoter reporter activity: transcription factor +/- ligand, control = 1.00
Method: as §1, §2, §3

[5] = tested on: hIFNg promoter; assay: NHR-promoter luciferase screen, hIFNg promoter; assay type: cell-based, human; conditions: for Luc. act., normalized to lacZ / Normalized Luc. act., normalized to control: IFNg promoter, HR component without or with ligand; for hIFNg promoter reporter activity: transcription factor +/- ligand, control = 1.00
Method: as §1, §2, §3

[6] = tested on: SREBP1c promoter; assay: NHR-promoter luciferase screen, SREBP1c promoter; assay type: cell-based, mouse; conditions: for Luc. act., normalized to lacZ / Normalized Luc. act., normalized to control: SREBP1c promoter, HR component without or with ligand; for mSREBP1-c promoter reporter activity: transcription factor +/- ligand, control = 1.00
Method: as §1, §2, §3

| Molecule | Luc. act., normalized to lacZ [1] | Normalized Luc. act., normalized to control [1] | luciferase activity normalized to lacZ activity and to a control, mUCP! [1] | Luc. act., normalized to lacZ [2] | Normalized Luc. act., normalized to control [2] | luciferase activity normalized to lacZ activity and to a control, mUCP2 [2] | Luc. act., normalized to lacZ [3] | Normalized Luc. act., normalized to control [3] | hPOMC promoter reporter activity [3] | Normalized Luc. act., normalized to control [4] | Luc. act., normalized to lacZ [4] | hIRF7 promoter reporter activity [4] | Luc. act., normalized to lacZ [5] | Normalized Luc. act., normalized to control [5] | hIFNg promoter reporter activity [5] | Luc. act., normalized to lacZ [6] | Normalized Luc. act., normalized to control [6] | mSREBP1-c promoter reporter activity [6] |
| --- | --- | --- | --- | --- | --- | --- | --- | --- | --- | --- | --- | --- | --- | --- | --- | --- | --- | --- |
| B1 | 3.8 | 0.8 | 0.85 | 143.0 | 1.3 | 1.30 | 2.3 | 0.5 | 0.53 | 1.2 | 32.6 | 1.24 | 17.9 | 1.1 | 1.13 | 574.4 | 1.8 | 1.78 |
| B2 | 4.3 | 1.0 | 0.96 | 174.4 | 1.6 | 1.59 | 2.8 | 0.7 | 0.66 | 1.9 | 50.4 | 1.91 | 19.5 | 1.2 | 1.22 | 721.7 | 2.2 | 2.24 |
| B3 | 1.7 | 0.4 | 0.38 | 104.0 | 0.9 | 0.95 | 1.6 | 0.4 | 0.38 | 1.5 | 39.9 | 1.51 | 8.8 | 0.6 | 0.55 | 410.8 | 1.3 | 1.28 |
